Assay results: US20200392227A1 (LYVGEN BIOPHARMA, published 2020)

Assays:
Experiment in all cases: BLI
[1] = molecular target: T1, human FcRI protein (MednaBio, E1031) (human, UniProt P12314 16-288, limits assumed)
T1 construct: Bought; loaded on anti-penta-HIS biosensors; also called FcγRI
Summary of the method: (§1)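 On an Octet Red96 System, anti-penta-HIS biosensors loaded with commercial human Fc receptor proteins were dipped into test IgG diluted 1:3 over 8 points from 300 nM. Fcγ receptor runs used pH 7.2 and FcRn runs used pH 6. Global fitting of these biolayer interferometry data gave the values for Kd, kon and koff, using a 1:1 binding model.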

[2] = molecular target: T2, human FcRIIA protein (MednaBio, E1033) (human, UniProt P12318 34-218, limits assumed)
T2 construct: Bought; also called FcγRIIA
T2 sequence (looked up): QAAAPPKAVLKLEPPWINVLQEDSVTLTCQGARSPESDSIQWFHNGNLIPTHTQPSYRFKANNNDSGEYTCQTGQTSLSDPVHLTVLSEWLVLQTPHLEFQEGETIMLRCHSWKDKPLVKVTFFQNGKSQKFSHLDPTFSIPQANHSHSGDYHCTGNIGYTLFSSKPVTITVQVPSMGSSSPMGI
Summary of the method: as §1

[3] = molecular target: T3, human FcRIIB/C protein (MednaBio, E1034) (human, UniProt P31994 43-217, limits assumed)
T3 construct: Bought as FcRIIB/C; also called FcγRIIB; CD32B
T3 sequence (looked up): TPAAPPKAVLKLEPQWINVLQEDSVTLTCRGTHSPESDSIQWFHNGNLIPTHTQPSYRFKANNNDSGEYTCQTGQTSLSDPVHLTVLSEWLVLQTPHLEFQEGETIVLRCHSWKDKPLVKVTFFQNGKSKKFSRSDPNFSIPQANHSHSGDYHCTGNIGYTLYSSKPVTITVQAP
Summary of the method: as §1

[4] = molecular target: T4, human FcRIIIA-F158 protein (MednaBio, E1036) (human, UniProt P08637 17-208)
T4 construct: Bought; also called FcγRIIIA(F)
Summary of the method: as §1

[5] = molecular target: T5, human FcRIIIA-V158 protein (MednaBio, E1035) (human, UniProt P08637 17-208)
T5 construct: Bought; also called FcγRIIIA(V); FcgRIIIA(V)
Summary of the method: as §1

[6] = molecular target: T6, human FcRIIIB protein (MednaBio, E1037) (human, UniProt O75015 17-200)
T6 construct: Bought; also called FcγRIIIB; FcgRIIIB
Summary of the method: as §1

[7] = molecular target: T7, human FcRn protein (MednaBio, E1032) (human, UniProt P55899 24-297; P61769 21-119)
T7 construct: Bought; assays at pH 6
Summary of the method: as §1

T1 sequence (P12314 16-288 limits assumed): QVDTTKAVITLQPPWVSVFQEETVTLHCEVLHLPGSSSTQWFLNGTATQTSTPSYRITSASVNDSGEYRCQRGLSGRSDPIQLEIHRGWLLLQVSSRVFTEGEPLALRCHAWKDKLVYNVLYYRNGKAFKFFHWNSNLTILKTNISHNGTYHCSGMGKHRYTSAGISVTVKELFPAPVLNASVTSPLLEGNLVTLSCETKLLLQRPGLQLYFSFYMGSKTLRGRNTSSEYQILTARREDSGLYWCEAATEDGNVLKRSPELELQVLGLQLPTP
T5 sequence (P08637 17-208 F176V): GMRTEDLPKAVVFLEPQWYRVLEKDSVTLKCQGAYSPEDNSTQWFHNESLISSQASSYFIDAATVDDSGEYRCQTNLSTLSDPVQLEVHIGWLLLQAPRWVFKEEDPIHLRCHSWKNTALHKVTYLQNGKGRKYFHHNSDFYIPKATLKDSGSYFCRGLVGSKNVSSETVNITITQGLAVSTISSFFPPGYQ
T4 sequence (P08637 17-208 limits assumed): as the sequence (P08637 17-208 F176V) above, with V160F counted along it
T6 sequence (O75015 17-200 limits assumed): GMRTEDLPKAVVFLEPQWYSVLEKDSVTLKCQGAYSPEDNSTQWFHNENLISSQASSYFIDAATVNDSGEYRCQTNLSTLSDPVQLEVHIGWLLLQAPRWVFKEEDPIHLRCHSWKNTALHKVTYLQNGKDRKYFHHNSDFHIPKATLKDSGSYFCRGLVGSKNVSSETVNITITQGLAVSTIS

Kd [1]: 37 nM
koff [1]: 0.0098 s⁻¹
kon [1]: 260000 M⁻¹ s⁻¹
Kd [2]: 530 nM
koff [2]: 0.14 s⁻¹
kon [2]: 260000 M⁻¹ s⁻¹
Kd [3]: 46 nM
koff [3]: 0.011 s⁻¹
kon [3]: 250000 M⁻¹ s⁻¹
binding result [4]: no binding (tested: 300 nM)
binding result [5]: no binding (tested: 300 nM)
binding result [6]: no binding (tested: 300 nM)
Kd [7]: 17 nM
koff [7]: 0.013 s⁻¹
kon [7]: 760000 M⁻¹ s⁻¹
B1: anti-CD137 IgG1 with Fc variant G1m29 (antibody)
heavy: EVQLVQSGAEVKKPGESLRISCKGSGYSFSTYWISWVRQMPGKGLEWMGKIYPGDSYTNYSPSFQGQVTISADKSISTAYLQWSSLKASDTAMYYCARGYGIFDYWGQGTLVTVSSASTKGPSVFPLAPSSKSTSGGTAALGCLVKDYFPEPVTVSWNSGALTSGVHTFPAVLQSSGLYSLSSVVTVPSSSLGTQTYICNVNHKPSNTKVDKKVEPKSCDKTHTCPPCPAPELLGPSVFLFPPKPKDTLMISRTPEVTCVVVDVEHEDPEVKFNWYVDGVEVHNAKTKPREEQYNSTYRVVSVLTVLHQDWLNGKEYKCKVSNKAFPAPIEKTISKAKGQPREPQVYTLPPSREEMTKNQVSLTCLVKGFYPSDIAVEWESNGQPENNYKTTPPVLDSDGSFFLYSKLTVDKSRWQQGNVFSCSVMHEALHNHYTQKSLSLSPGK
light: SYELTQPPSVSVSPGQTASITCSGDNIGDQYAHWYQQKPGQSPVLVIYQDKNRPSGIPERFSGSNSGNTATLTISGTQAMDEADYYCATYTGFGSLAVFGGGTKLTVLGQPKAAPSVTLFPPSSEELQANKATLVCLISDFYPGAVTVAWKADSSPVKAGVETTTPSKQSNNKYAASSYLSLTPEQWKSHRSYSCQVTHEGSTVEKTVAPTECS
notes: copies: 2 + 2
